Target: TubY C-terminal domain (BcYCΔ; residues 107-182) of pBc10987 from Bacillus cereus (Bacillus cereus (plasmid pBc10987))
Test: crystal structure; Se-substituted BcYCΔ at 1.4 mM in 10 mM Tris pH 8.0, 0.1 M NaCl, 3 mM DTT; sitting drop, 20 °C, 0.1 M HEPES pH 7.5, 0.2 M MgCl2, 30% PEG400; 2.6 Å; four monomers in the asymmetric unit

TubY C-terminal domain (BcYCΔ; residues 107-182) of pBc10987 from Bacillus cereus (domain or fragment)
stoichiometry N: 4
